From patent US20200079833A1 (AstraZeneca / MedImmune, published 2020)
Values belong to the binder of their own block, whether it stands above or below them. Starred links: 1 amine or outer side, 2 acyl side, 3 side chain; linkers in the order of their positions; H or OH if unused. Non-standard residues stand in square brackets, D forms with d. Groups on a side chain read outwards from the residue. No end group written: not given here. *: point of attachment. γGlu = O=C(O)[C@H](CCC(=O)[*:2])N[*:1]; αMeF = C[C@](N)(Cc1ccccc1)C(=O)O; αMeK = C[C@](N)(CCCCN)C(=O)O; Lauroyl = CCCCCCCCCCCC(=O)*; αMeS = C[C@](N)(CO)C(=O)O; Aib = CC(C)(N)C(=O)O

What was measured:
Experiment in all cases: cell-based or functional assay
[1] = molecular target: T1, glucose-dependent insulinotropic peptide (gastric inhibitory polypeptide) receptor (GIPR) (human, UniProt P48546 22-466)
T1 sequence (looked up): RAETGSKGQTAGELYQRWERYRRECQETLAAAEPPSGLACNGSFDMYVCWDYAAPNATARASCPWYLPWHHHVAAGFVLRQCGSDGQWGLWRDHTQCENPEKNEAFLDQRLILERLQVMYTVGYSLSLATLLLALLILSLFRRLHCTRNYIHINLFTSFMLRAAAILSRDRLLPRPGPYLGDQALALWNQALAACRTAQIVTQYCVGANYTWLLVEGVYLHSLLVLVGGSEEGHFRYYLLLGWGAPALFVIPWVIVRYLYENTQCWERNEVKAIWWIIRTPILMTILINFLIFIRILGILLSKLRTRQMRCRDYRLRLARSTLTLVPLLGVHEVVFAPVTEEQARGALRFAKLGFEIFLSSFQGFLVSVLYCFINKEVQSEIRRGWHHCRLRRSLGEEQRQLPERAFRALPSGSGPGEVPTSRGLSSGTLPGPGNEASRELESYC

[2] = molecular target: GLP-1 receptor (GLP-1R) (human, UniProt P43220 24-463)
[3] = molecular target: glucagon receptor (GCGR) (human, UniProt P47871 26-477)
glucagon receptor (GCGR), sequence (P47871 26-477): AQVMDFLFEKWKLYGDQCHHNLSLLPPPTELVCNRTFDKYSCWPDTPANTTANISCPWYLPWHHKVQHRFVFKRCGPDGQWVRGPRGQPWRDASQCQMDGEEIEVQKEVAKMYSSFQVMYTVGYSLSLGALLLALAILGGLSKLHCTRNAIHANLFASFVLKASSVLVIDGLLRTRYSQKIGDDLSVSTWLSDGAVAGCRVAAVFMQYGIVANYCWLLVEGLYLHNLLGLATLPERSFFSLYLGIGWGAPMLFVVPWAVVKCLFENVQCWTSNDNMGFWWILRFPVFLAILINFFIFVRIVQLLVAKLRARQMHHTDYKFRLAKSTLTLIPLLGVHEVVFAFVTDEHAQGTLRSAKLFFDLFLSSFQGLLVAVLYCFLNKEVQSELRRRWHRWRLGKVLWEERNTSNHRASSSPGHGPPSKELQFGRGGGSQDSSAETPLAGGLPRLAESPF

- cAMP Primary assay EC50 GIP-R [1]: 27 nM
- cAMP Primary assay EC50 GIP-R (2nd) [1]: 27 nM
- cAMP Mean pM GLP-1R [2]: 11.5 pM
- cAMP Primary assay EC50 GLP-1R n1 [2]: 0.012 nM
- cAMP Primary assay EC50 GLP-1R n2 [2]: 0.011 nM
- cAMP Primary assay EC50 Gluc-R [3]: 27 nM
- cAMP Primary assay EC50 Gluc-R (2nd) [3]: 27 nM
B1: SEQ ID NO 129 (peptide)
peptide: H[Aib]EGS[αMeF]TSDV[αMeS]S[αMeF]LEGEAAK([γGlu-γGlu-Lauroyl])E[αMeF]IA[αMeF]VV[αMeK]GG-NH2
modifications: N-terminus assumed
SMILES: CCCCCCCCCCCC(=O)N[C@@H](CCC(=O)N[C@@H](CCC(=O)NCCCC[C@H](NC(=O)[C@H](C)NC(=O)[C@H](C)NC(=O)[C@H](CCC(=O)O)NC(=O)CNC(=O)[C@H](CCC(=O)O)NC(=O)[C@H](CC(C)C)NC(=O)[C@](C)(Cc1ccccc1)NC(=O)[C@H](CO)NC(=O)[C@](C)(CO)NC(=O)[C@@H](NC(=O)[C@H](CC(=O)O)NC(=O)[C@H](CO)NC(=O)[C@@H](NC(=O)[C@](C)(Cc1ccccc1)NC(=O)[C@H](CO)NC(=O)CNC(=O)[C@H](CCC(=O)O)NC(=O)C(C)(C)NC(=O)[C@@H](N)Cc1c[nH]cn1)[C@@H](C)O)C(C)C)C(=O)N[C@@H](CCC(=O)O)C(=O)N[C@@](C)(Cc1ccccc1)C(=O)N[C@H](C(=O)N[C@@H](C)C(=O)N[C@@](C)(Cc1ccccc1)C(=O)N[C@H](C(=O)N[C@H](C(=O)N[C@@](C)(CCCCN)C(=O)NCC(=O)NCC(N)=O)C(C)C)C(C)C)[C@@H](C)CC)C(=O)O)C(=O)O

- cAMP Primary assay EC50 GIP-R [1]: 26 nM
- cAMP Primary assay EC50 GIP-R (2nd) [1]: 26 nM
- cAMP Mean pM GLP-1R [2]: 14.4 pM
- cAMP Primary assay EC50 GLP-1R n1 [2]: 0.016 nM
- cAMP Primary assay EC50 GLP-1R n2 [2]: 0.013 nM
- cAMP Primary assay EC50 Gluc-R [3]: 26 nM
- cAMP Primary assay EC50 Gluc-R (2nd) [3]: 26 nM
B2: SEQ ID NO 130 (peptide)
peptide: H[Aib]EGS[αMeF]TSDV[αMeS]S[αMeF]LEGEAAK([γGlu-γGlu-γGlu-Lauroyl])E[αMeF]IA[αMeF]VV[αMeK]GG-NH2
modifications: N-terminus assumed
SMILES: CCCCCCCCCCCC(=O)N[C@@H](CCC(=O)N[C@@H](CCC(=O)N[C@@H](CCC(=O)NCCCC[C@H](NC(=O)[C@H](C)NC(=O)[C@H](C)NC(=O)[C@H](CCC(=O)O)NC(=O)CNC(=O)[C@H](CCC(=O)O)NC(=O)[C@H](CC(C)C)NC(=O)[C@](C)(Cc1ccccc1)NC(=O)[C@H](CO)NC(=O)[C@](C)(CO)NC(=O)[C@@H](NC(=O)[C@H](CC(=O)O)NC(=O)[C@H](CO)NC(=O)[C@@H](NC(=O)[C@](C)(Cc1ccccc1)NC(=O)[C@H](CO)NC(=O)CNC(=O)[C@H](CCC(=O)O)NC(=O)C(C)(C)NC(=O)[C@@H](N)Cc1c[nH]cn1)[C@@H](C)O)C(C)C)C(=O)N[C@@H](CCC(=O)O)C(=O)N[C@@](C)(Cc1ccccc1)C(=O)N[C@H](C(=O)N[C@@H](C)C(=O)N[C@@](C)(Cc1ccccc1)C(=O)N[C@H](C(=O)N[C@H](C(=O)N[C@@](C)(CCCCN)C(=O)NCC(=O)NCC(N)=O)C(C)C)C(C)C)[C@@H](C)CC)C(=O)O)C(=O)O)C(=O)O
